Holding throughout (settings): both partners purified
Assay [1] addresses T1, cyclin T1 (CycT1), purified alone, wild type (human, UniProt O60563 1-264).
T1 construct: source: purified
Nature of the assay: fluorescence polarisation; competition titration of unlabeled AFF4 segments against 5 nM fluorescent peptide with 75 nM CycT1, 45 nM P-TEFb or 6 nM Tat-P-TEFb; 25 mM HEPES pH 7.5, 100 mM NaCl, 10% glycerol, 0.1% NP40, 0.5 mM TCEP. A general note: Polarisation of emitted light reports the rotation of a fluorescent probe.

Assay [2] addresses T2, P-TEFb (CDK9 1–330 / cyclin T1 1–264) (human, UniProt P50750 1-330; O60563 1-264).
T2 construct: also called positive transcription elongation factor b; source: High5 insect cells (baculovirus), purified (His-Trap, TEV digest, His-Trap); not shown: His-tag, N-terminal, cleaved
Described as above.

Assay [3] concerns the target T3, Tat-P-TEFb complex (HIV-1 Tat 1–86, CDK9 1–330, cyclin T1 1–264) (human | HIV-1, UniProt P50750;O60563;P04608).
T3 construct: also called P-TEFb-Tat; not shown: His-tag, N-terminal, cleaved; copies: + +
The assay is described as above.

For assay [4], the target named is T1, cyclin T1 (CycT1), purified alone, wild …. Nature of the assay: fluorescence polarisation.
Assay [5] has as its target T2, P-TEFb (CDK9 1–330 / cyclin T1 1–264). Put plainly: fluorescence polarisation.
Assay [6] concerns the target T3, Tat-P-TEFb complex (HIV-1 Tat 1–86, …). Nature of the assay: fluorescence polarisation.

The values that follow come from PMC3589825, “The AFF4 scaffold binds human P-TEFb adjacent to HIV Tat” (eLife, 2013).

GABA = NCCCC(=O)O

In general, Kd refers to the equilibrium constant for the complex coming apart. High values mean lower affinity, low ones higher affinity.

T2 sequence (P50750 1-330, chain 1 of 2): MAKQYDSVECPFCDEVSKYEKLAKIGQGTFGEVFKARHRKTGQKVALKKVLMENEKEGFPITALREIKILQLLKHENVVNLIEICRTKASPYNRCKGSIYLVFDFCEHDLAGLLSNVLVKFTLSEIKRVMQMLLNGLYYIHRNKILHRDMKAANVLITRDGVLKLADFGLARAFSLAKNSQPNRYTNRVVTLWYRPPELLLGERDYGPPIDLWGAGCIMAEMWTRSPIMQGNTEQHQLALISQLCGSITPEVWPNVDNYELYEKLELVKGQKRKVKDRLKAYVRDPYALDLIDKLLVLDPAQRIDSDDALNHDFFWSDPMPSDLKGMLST
T2 sequence (O60563 1-264, chain 2 of 2): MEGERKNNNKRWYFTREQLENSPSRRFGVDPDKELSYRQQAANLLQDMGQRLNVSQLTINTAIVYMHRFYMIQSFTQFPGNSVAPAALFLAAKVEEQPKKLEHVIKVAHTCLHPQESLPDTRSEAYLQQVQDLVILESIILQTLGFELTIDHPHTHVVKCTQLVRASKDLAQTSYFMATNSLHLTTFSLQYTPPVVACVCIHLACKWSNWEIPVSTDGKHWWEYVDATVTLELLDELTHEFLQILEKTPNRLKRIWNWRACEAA
T1 sequence (O60563 1-264): as the sequence (O60563 1-264, chain 2 of 2) above

B1: unlabeled AFF4(32–67) peptide (peptide)
peptide: SPLFAEPYKVTSKEDKLSSRIQSMLGNYDEMKDFIG
For the molecule B1, the equilibrium dissociation constant (Kd) in assay [1] was found to be 102 ± 10 nM; in assay [2], 36 ± 4 nM; in assay [3], 4.5 ± 0.6 nM.

B2: AFF4(2–73) (domain or fragment, human, UniProt Q9UHB7 2-73, looked up)
chain: NREDRNVLRMKERERRNQEIQQGEDAFPPSSPLFAEPYKVTSKEDKLSSRIQSMLGNYDEMKDFIGDRSIPK
notes: source: E. coli Rosetta(DE3)pLysS, purified (His-Trap, TEV digest, His-Trap); not shown: His-tag, N-terminal, cleaved
Take B2: the results for the Kd in assay [1], in assay [2] and in assay [3] were 130 ± 18 nM, 10 ± 1 nM and 0.85 ± 0.15 nM, respectively.

B3: fluorescein-labeled AFF4(32–67) peptide (peptide)
peptide: {FAM-GABA}-SPLFAEPYKVTSKEDKLSSRIQSMLGNYDEMKDFIG-NH2
notes: source: synthetic peptide (University of Utah DNA/Peptide Facility)
Take B3: the Kd in assay [4] amounted to 104 ± 17 nM; in assay [5], 36 ± 6 nM; in assay [6], 8.8 ± 0.8 nM.

B4: AFF4(2–363) (domain or fragment, human, UniProt Q9UHB7 2-363, looked up)
chain: NREDRNVLRMKERERRNQEIQQGEDAFPPSSPLFAEPYKVTSKEDKLSSRIQSMLGNYDEMKDFIGDRSIPKLVAIPKPTVPPSADEKSNPNFFEQRHGGSHQSSKWTPVGPAPSTSQSQKRSSGLQSGHSSQRTSAGSSSGTNSSGQRHDRESYNNSGSSSRKKGQHGSEHSKSRSSSPGKPQAVSSLNSSHSRSHGNDHHSKEHQRSKSPRDPDANWDSPSRVPFSSGQHSTQSFPPSLMSKSNSMLQKPTAYVRPMDGQESMEPKLSSEHYSSQSHGNSMTELKPSSKAHLTKLKIPSQPLDASASGDVSCVDEILKEMTHSWPPPLTAIHTPCKTEPSKFPFPTKESQQSNFGTGEQK
Turning to B4, the Kd in assay [2] amounted to 7 ± 1 nM; in assay [3], 0.6 ± 0.1 nM.
